Source: paper PMC7332683, “A ferredoxin-dependent dihydropyrimidine dehydrogenase in Clostridium chromiireducens” (Bioscience Reports, 2020)

What was measured:
PydAc = molecular target: T1, PydAc (Clostridium chromiireducens, UniProt A0A399ILH0); assay: spectrophotometric assay of reduced methyl viologen oxidation at […] nm, anaerobic; activity with and without added FMN; assay type: biochemical; conditions: 15 uM FMN added, uracil, pH 7.5, predominantly apo recombinant enzyme
T1 construct: gene preA; FMN and two Fdx domains, no FAD/NADPH domain; strain C1 (DSM12136) is given only for the growth test
T1 sequence (A0A399ILH0 1-499): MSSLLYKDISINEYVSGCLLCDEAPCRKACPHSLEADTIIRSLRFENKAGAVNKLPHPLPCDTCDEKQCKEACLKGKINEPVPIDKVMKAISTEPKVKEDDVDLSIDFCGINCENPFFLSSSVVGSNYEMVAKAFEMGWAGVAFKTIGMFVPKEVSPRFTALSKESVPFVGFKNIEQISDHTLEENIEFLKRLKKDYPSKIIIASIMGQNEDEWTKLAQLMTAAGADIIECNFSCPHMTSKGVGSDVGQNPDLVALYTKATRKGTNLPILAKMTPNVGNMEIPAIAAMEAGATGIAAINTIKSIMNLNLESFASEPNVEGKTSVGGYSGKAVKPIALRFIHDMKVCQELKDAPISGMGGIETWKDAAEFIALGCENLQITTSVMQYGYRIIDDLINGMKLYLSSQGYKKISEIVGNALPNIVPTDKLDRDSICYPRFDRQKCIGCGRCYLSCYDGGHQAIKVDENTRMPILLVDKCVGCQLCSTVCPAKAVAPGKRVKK

purified protein = substrate: O=c1cc[nH]c(=O)[nH]1; assay: purified protein; assay type: biochemical, Clostridium chromiireducens; conditions: 0.1 mM reduced methyl viologen (MV+), 15 uM FMN, 0.1 M KCl, 20 mM Tris-HCl, pH 7.5, 0.2 uM reconstituted PydAc

Row | Molecule | spectrophotometric assay of reduced methyl viologen oxidation at 600 nm, anaerob (PydAc) | Km (purified protein) | kcat (purified protein)
1 | Cc1cc2nc3c(=O)[nH]c(=O)nc-3n(C[C@H](O)[C@H](O)[C@H](O)COP(=O)(O)O)c2cc1C [FMN] | omission of FMN from the assay mixture led to a large decrease in activity | – | –
2 | PydAc (Clostridium chromiireducens) (protein, FMN and two Fdx domains, no FAD/NADPH domain; strain C1 (DSM12136) is given only for the growth test) MSSLLYKDISINEYVSGCLLCDEAPCRKACPHSLEADTIIRSLRFENKAGAVNKLPHPLPCDTCDEKQCKEACLKGKINEPVPIDKVMKAISTEPKVKEDDVDLSIDFCGINCENPFFLSSSVVGSNYEMVAKAFEMGWAGVAFKTIGMFVPKEVSPRFTALSKESVPFVGFKNIEQISDHTLEENIEFLKRLKKDYPSKIIIASIMGQNEDEWTKLAQLMTAAGADIIECNFSCPHMTSKGVGSDVGQNPDLVALYTKATRKGTNLPILAKMTPNVGNMEIPAIAAMEAGATGIAAINTIKSIMNLNLESFASEPNVEGKTSVGGYSGKAVKPIALRFIHDMKVCQELKDAPISGMGGIETWKDAAEFIALGCENLQITTSVMQYGYRIIDDLINGMKLYLSSQGYKKISEIVGNALPNIVPTDKLDRDSICYPRFDRQKCIGCGRCYLSCYDGGHQAIKVDENTRMPILLVDKCVGCQLCSTVCPAKAVAPGKRVKK | – | 130 ± 30 µM | 0.92 ± 0.04 s⁻¹
